The values below come from paper PMC3992434 (Developmental cell, 2013).

For this experiment, the target named is MBP-LDLR tail wild-type (full-length LDLR tail fused to maltose-binding protein). In words: pull-down.

B1: recombinant GST-His-tagged AP-1B core complex (γ, β1, μ1B, σ1) (complex)
chain 1: not shown
chain 2: MTDSKYFTTTKKGEIFELKAELNSDKKEKKKEAVKKVIASMTVGKDVSALFPDVVNCMQTDNLELKKLVYLYLMNYAKSQPDMAIMAVNTFVKDCEDPNPLIRALAVRTMGCIRVDKITEYLCEPLRKCLKDEDPYVRKTAAVCVAKLHDINAQLVEDQGFLDTLKDLISDSNPMVVANAVAALSEIAESHPSSNLLDLNPQSINKLLTALNECTEWGQIFILDCLANYMPKDDREAQSICERVTPRLSHANSAVVLSAVKVLMKFMEMLSKDLDYYGTLLKKLAPPLVTLLSAEPELQYVALRNINLIVQKRPEILKHEMKVFFVKYNDPIYVKLEKLDIMIRLASQANIAQVLAELREYATEVDVDFVRKAVRAIGRCAIKVEQSAERCVSTLLDLIQTKVNYVVQEAIVVIKDIFRKYPNKYESVIATLCENLDSLDEPEARAAMIWIVGEYAERIDNADELLESFLEGFHDKSTQVQLQLLTAFVKLFLKKPTETQELVQQVLSLATQDSDNPDLRDRGYIYWRLLSTDPVAAKEVVLAEKPLISEETDLIEPTLLDELICYIGTLASVYHKPPSAFVEG
chain 3: MSASAVFILDVKGKPLISRNYKGDVPMTEIDHFMPLLMQREEEGVLAPLLSHGRVHFLWIKHSNLYLVATTLKNANASLVYSFLYKTVEVFCEYFKELEEESIRDNFVIVYDLLDELMDFGFPQTTDSKILQEYITQQGNKLETGKSRVPPTVTNAVSWRSEGIKYKKNEVFIDVIESVNLLVNANGSVLLSEIVGTIKLKVFLSGMPELRLGLNDRVLFELTGRSKNKSVELEDVKFHQCVRLSRFDNDRTISFIPPDGDFELMSYRLSTQVKPLIWIESVIEKFSHSRVEIMVKAKGQFKKQSVANGVEISVPVPSDADSPRFKTSVGSAKYVPEKNVVIWSIKSFPGGKEYLMRAHFGLPSVETEEVEGRPPIGVKFEIPYFTVSGIQVRYMKIIEKSGYQALPWVRYITQSGDYQLRTS
chain 4: MIHFILLFSRQGKLRLQKWYITLPDKERKKITREIVQIILSRGHRTSSFVDWKELKLVYKRYASLYFCCAIENQDNELLTLEIVHRYVELLDKYFGNVCELDIIFNFEKAYFILDEFIIGGEIQETSKKIAVKAIEDSDMLQEVSTVCQTMGER
For B1, the “fold binding relative to AP-1A” value is around 5 fold.
